Measurements published in the nanobody polyreactivity screen of Harvey et al. (2022).

Experiment: yeast display, Sf9 membrane polyspecificity reagent, FACS + sequencing; frameworks hold sequencing errors
How it was run: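 Genes from sorted yeast were amplified by colony PCR, read by MiSeq 2 × 250 sequencing and filtered on CDR length. These cells carried a synthetic nanobody library in Saccharomyces cerevisiae BJ5465 and were sorted by FACS into low and high (top ~1%) gates on anti-HA and streptavidin fluorescence. Polyreactivity is labelled according to the gate of origin.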

Sequence	polyreactivity (PSR sort gate)
QVQLVESGGGLVQAGGSLRLSCAASGRIFIYYTMGWYRQAPGKERELVASITWSGGRTYYADSVKGRFTISRDNAKNTVYLQMNSLKPEDTAVYYCNAGYSIGLVAYGYWGQGTQVTLSS	low polyreactivity
QVQLVESGGGLVQAGGSLRLSCAASGRIFKENAMGWYRQAPGKERELVAAISSGASTSYADSVKGRFTISRDNAKNTVYLQMNSLKPEDTAVYYCNRGGDLYYPGWLFDYWGQGSQVTVSS	low polyreactivity
QVQLVESGGGLVQAGGSLRLSCAASGRIFKFNAMGWYRQAPGKERELVAATWSGGRTSYADSVKGRFTISRDNAKNTVYLQMNSLKPEDTAVYYCNAADWIDVQYDYWGQGNQVTVSS	low polyreactivity
QVQLVESGGGLVQAGGSLRLSCAASGRIFKGNAMGWYRQAPGKEREFVAAISQRGGSTYYADSVKGRFTISRDNAKNTVYLQMNSLKPEDTAVYFCAAAAQRPEGYYWGQGTQVTVSS	high polyreactivity
QVQLVESGGGLVQAGGSLRLSCAASGRIFKGNAMGWYRQAPGKEREFVADISQRGGSTYYADSVKGRFTISRDNAKNTVYLQMNSLKPEDTAVYYCAAVRKSVGVKYDYWGQGTQVTVSS	high polyreactivity
QVQLVESGGGLVQAGGSLRLSCAASGRIFKGYAMGWYRLAPGKERELVAAITSGGNTNYADSVKGRFTISRDNAKNTVYLQMNSLKPEDTAVYYCAARPRFVYSYPYYYWGQGTQVTVSS	high polyreactivity
QVQLVESGGGLVQAGGSLRLSCAASGRIFKHYAMGWYRQAPGKERELVAAITNGGRTNYADSVKGRFTISRDNAKNTVYLQMNSLKPEDTAVYYCARDRKIAYLSEGFDYWGQGTQVTVSS	low polyreactivity
QVQLVESGGGLVQAGGSLRLSCAASGRIFKNYAMGWYRQAPGKERELVAAISRSGGRTYYADSVKGRFTISRDNAKNTVYLQMNSLKPEDTAVYYCAADVDYRYSKIYKWTYDYWGQGTQVTVSS	high polyreactivity
QVQLVESGGGLVQAGGSLRLSCAASGRIFKNYAMGWYRQAPGKERELVAAITWSGGRTYYADSVKGRFTISRDNAKNTVYLQMNSLKPEDTAVYYCATAARRGPNSIEPFGYGSWGQGTQVTVSS	high polyreactivity
QVQLVESGGGLVQAGGSLRLSCAASGRIFKRNAMGGYRQAPGKDREVVADMSYGHSTYADSVKGRFTISRDNAKKTVYLQMNSLKPEDTAFYYCAKLYWIRTYDYWGQGTQVSVSS	low polyreactivity
QVQLVESGGGLVQAGGSLRLSCAASGRIFKRNAMGWYRQAPGKERELVAAISYSGGSTYYADSVKGRFTISRDNAKNTVYLQMNSLKPEDTAVYYCAVDRYPTGITKYDYWGQGTQVTVSS	high polyreactivity
QVQLVESGGGLVQAGGSLRLSCAASGRIFKRNTMGWYRQAPGKEWELVAAITRSGGSTHYADSVKGRFTFSRDNAKNTVYLHMNSLKPEDTAVYYCAVRAAAIDRLAQFDYWGQGSQVTVSS	low polyreactivity
QVQLVESGGGLVQAGGSLRLSCAASGRIFKRYAMGWYRQAPGKERELVAAISRGGSTNYADSVKGRFTISRDNAKNTVYLQMNSLKPEDTAVYYCAVQSGYSGSSQPVRYDYWGQGTQVTVSS	high polyreactivity
QVQLVESGGGLVQAGGSLRLSCAASGRIFKRYAMGWYRQAPGKERELVAAITSSGGRTYYADSVKGRFTISRDNAKNTVYLQMNSLKPEDTAVYYCNVDSANRDGYWGQGTQVTVSS	high polyreactivity
QVQLVESGGGLVQAGGSLRLSCAASGRIFKRYAMGWYRQAPGKERELVASITWSGGSTYYADSVKGRFTISRDNAKNTVYLQMNSLKPEDTAVYYCAARRTATTSRAYYYWGQGTQVTVSS	high polyreactivity
QVQLVESGGGLVQAGGSLRLSCAASGRIFKRYAMGWYRQAPGKERELVATITNGGRTSYADSVKGRFTISRDNAKNTVYLQMNSLKPEDTAVYYCNAYGQTSRPLVYGWRYDYWGQGTQVTVSS	high polyreactivity
QVQLVESGGGLVQAGGSLRLSCAASGRIFKSYAMGWYRQAPGKEMELVAAINWSGGSTYYADSVKGRFTISRDNAKNTVYLQMNSLKPEDTAVYYCNALYAVRSYDSWGQGTQVTVSS	high polyreactivity
QVQLVESGGGLVQAGGSLRLSCAASGRIFKSYAMGWYRQAPGKERELVASIRTGGTTNYADSVNGRFTISRDNAKNTVYLQMNSLKPEDTAVYDCNRGYYSYYGRYYYWGQGTQVTVSS	high polyreactivity
QVQLVESGGGLVQAGGSLRLSCAASGRIFKSYVMGWYRQAPGKERELVAAISKRGGRTYYADSVKGRFTISRDNAKNTVYLQMNSLKPEDTAVYYCNATYPVGDFDYWGQGTQVTVSS	high polyreactivity
QVQLVESGGGLVQAGGSLRLSCAASGRIFKTYTMGWYRQAPGKERELVAVSTSVGSTYYADSVKGRFTISRDNAKNTVYLQMNSLKPEDTAVYYCAAETWVPQGYDYWGQGTQVTVSS	high polyreactivity
QVQLVESGGGLVQAGGSLRLSCAASGRIFKVNTMGWYRQAPGKERELVASIRGGGSTNYADSVKGRFTISRDNAKNTVNLQMHSPKPEDTAVYYCAAGTSKPTPIYGYWGQGTQVTVSS	low polyreactivity
QVQLVESGGGLVQAGGSLRLSCAASGRIFKVYAMGWYRQAPGKERELVAAISSRGGSTYYADSVKGRFTISRDNAKNTVYLQMNSLKPEDTAVYYCAALVTWLHPKGDYWGQGTQVTVSS	high polyreactivity

Sequence	polyreactivity (PSR sort gate)
QVQLVESGGGLVQAGGSLRLSCAASGRIFKWYAMGWYRQAPGKERELVAAITSGGGSTYYADSVKGRFTISRDNAKNTVYLQMNSLKPEDTAVYYCNSWSSYGYDYWGQGTQVTVSS	high polyreactivity
QVQLVESGGGLVQAGGSLRLSCAASGRIFKYNAMGWYRQAPGKERELVAVISFSGGSTYYADSVKGRFTISRDNAKNTVYLQMNSLKPEDTAVYYCNVRQHYSRRLKKWQMDCWGQGTQVTVSS	high polyreactivity
QVQLVESGGGLVQAGGSLRLSCAASGRIFKYYAMGWYRPAPGNETELVAAIRWSDSTYYADSVKGRFTSSRDNAKNTVYLQMNSLQPEDTAVYYCAALYRHPQEYRVGDYDYWGQGTQVTVSS	low polyreactivity
QVQLVESGGGLVQAGGSLRLSCAASGRIFKYYAMGWYRQAPGKERELFAAISRGGSTYYADSVKGRFTISRDNAKNTVYLQMNSLKPEDTAVYYCNAYRHGYVAYRRYDYWGQGTQVTVSS	high polyreactivity
QVQLVESGGGLVQAGGSLRLSCAASGRIFKYYAMGWYRQAPGKERELVAAISRSGGSTYYADSVKGRFTISRDNAKKTVYLQMNSLKPEDTAVYYCAAGYKQATYDRIRTAYGYWGQGTQVTVSS	high polyreactivity
QVQLVESGGGLVQAGGSLRLSCAASGRIFKYYSMGWYRQAPGKERELVAAITRGGSTNYADSVKGRFTISRDNAKNTFYLQMKSLKTEDTEVYYCAVDTVRNHLMDYWGQGNQVTVSS	low polyreactivity
QVQLVESGGGLVQAGGSLRLSCAASGRIFKYYTMVWYRQAPGKERELVAAINSRGGTTYYADSVKGRFTISRDNAKNTVYLQMNSLKPVDTAVYYCAIDRIRDAGYRGLHRFDYWGQGTQVTLSS	low polyreactivity
QVQLVESGGGLVQAGGSLRLSCAASGRIFKYYVMGWYRQAPGKERELVAGISSSGGSTYYADSVKGRFTISRDNAKNTVYLQMNSLKPEDTAVYYCAADYTFAYYNVKMDYWGQGTQVTVSS	low polyreactivity
QVQLVESGGGLVQAGGSLRLSCAASGRIFLFNAMGWYRQAPGKEREFVAAISASGGSTYYADSVKGRFTISRDNAKNTVYLQMNSLKPEDTAVYYCAADYLYTRDVDYDYWGQGTQVTVSS	low polyreactivity
QVQLVESGGGLVQAGGSLRLSCAASGRIFLFYAMGWYRPAPGKERELVAAISVRGGSTYYADSVKGRFTISRDNAKNTVYLQMNSLKPEDTAVYYCAAKQKHTQQYGYWGQGTQVTVSS	high polyreactivity
QVQLVESGGGLVQAGGSLRLSCAASGRIFLGNAMGWYRQAPGKESELVAAITYSGRSTYYADSVKGRFTISRDNAKNTVYLQMNSLKPEDTAVYYSAARQYWTTDLPFQRYYYWGQGTQVTVSS	low polyreactivity
QVQLVESGGGLVQAGGSLRLSCAASGRIFLGNVMGWYRQAPGKERELVAAISSGGSTNYADSVKGRFTISRDNAKNTVYLQMNSLKPEDTAVYYCAAYFVRDWKLYYYWGQGTQVTVSS	low polyreactivity
QVQLVESGGGLVQAGGSLRLSCAASGRIFLINAMGWYRQARGKEWELVAAIRTGGNTYYADSVKGRFTISRDNAKTTVYLQMNSLKPEDTAVYYCAAARIYPYYRWSGAHRSDVDYWGQGTQVTVSS	low polyreactivity
QVQLVESGGGLVQAGGSLRLSCAASGRIFLIYAMGWYRQAPGKDRELVAAISGRGGGTTYYADSVKGRFTISRDNAKITVYLQMNSLKPEATAVYYCAARNGGHKYYYWGQGTQVTVSS	high polyreactivity
QVQLVESGGGLVQAGGSLRLSCAASGRIFLPNAMGWYRQAPGKERELVATITRGGGSTYYADSVKGRFTISRDNAKNTVYLQMNSLKPEDTAVYYCAKGYLLYQGHLPYWHRGGYWGQGTQVTVSS	high polyreactivity
QVQLVESGGGLVQAGGSLRLSCAASGRIFLRNAMGWFRQAPGKERELVAAIRGSGGSTYYADSVKRRFTISRDHAKTTVYLQTNSLKPEDTPVYYCAVASYYRYSHTYGYWGQGTQVTVSS	high polyreactivity
QVQLVESGGGLVQAGGSLRLSCAASGRIFLRNDMGWYRQAPGKVRELVAGISSDGSTYYADSVKGRFTISRDNAKNTVYLQMTSLKPEDTAVYYCNAEDTPGAGDGNWGQGTQVTVSS	low polyreactivity
QVQLVESGGGLVQAGGSLRLSCAASGRIFLSNAMGWYRQAPGKERELVAAISLSGGRTYYADSVKGRFTISRDNAKNTVYLQMNSLKPEDTAVYYCAAEFYPIRYYGRYDYWGQGTQVTVSS	low polyreactivity
QVQLVESGGGLVQAGGSLRLSCAASGRIFLSYAIGWYRQAPGKERELVAAITSSGGSTYYADSVKGRFTISRDNAKNTVYFQMNSLKPEDTAVYYCAADYGDPRVNEYDYWGQGTQVTVSS	low polyreactivity
QVQLVESGGGLVQAGGSLRLSCAASGRIFLSYAMGWYRQAPGKERELVAAISQSGSSKYYADSVKGRFTISRDNAKNTVYLQMNSLKPEDTAVYYCAARTGRKYYYWGQGTQVTVST	high polyreactivity
QVQLVESGGGLVQAGGSLRLSCAASGRIFLSYAMGWYRQAPGNEREFVAAITSSGGSTSYADSVKGRFTISRDNAKNTVYLQMNSLKPEDTAVYYCNDRAYIFGQMKYDYWGQGTQVTVSS	low polyreactivity
